Experimental data reported in patent US20250163140A1 (Kyowa Kirin, published 2025).
“And” between values parts separate entries of the source, which are not always exact repeats. Identical values can stand only once. Like-named read-outs stand apart in the source and are kept apart here. One block for each binder: values may come before it.

Assays:
[1] = molecular target: T1, Recombinant Human FGF-23 (R&D Systems, Cat No. 2604-FG-025/CF) (human, UniProt Q9GZV9 25-251); assay: cell-based or functional assay
T1 sequence (looked up): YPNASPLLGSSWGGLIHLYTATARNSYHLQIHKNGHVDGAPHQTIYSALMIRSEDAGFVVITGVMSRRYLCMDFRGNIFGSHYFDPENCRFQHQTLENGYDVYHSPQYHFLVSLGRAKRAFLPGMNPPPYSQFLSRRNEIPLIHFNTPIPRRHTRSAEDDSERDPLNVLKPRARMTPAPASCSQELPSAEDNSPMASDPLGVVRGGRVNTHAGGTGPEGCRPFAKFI

[2] = molecular target: T1, Recombinant Human FGF-23 (R&D Systems, …); assay: SPR, antibody captured on Protein A chip, FGF-23 analyte
[3] = molecular target: T1, Recombinant Human FGF-23 (R&D Systems, …); assay: cell-based or functional assay; remark: listed apart in the source
[4] = molecular target: T2, human FcRn (human FcRn-His tag with human β2 microglobulin) (human, UniProt P55899 24-297; P61769 21-119); assay: SPR pH 6, FcRn-His captured by anti-His, antibody analyte
T2 construct: also called h FcRn; hFcRn

[5] = molecular target: T1, Recombinant Human FGF-23 (R&D Systems, …); assay: SPR, antibody captured by anti-human IgG, FGF-23 analyte
[6] = molecular target: T1, Recombinant Human FGF-23 (R&D Systems, …); assay: cell-based or functional assay; remark: listed apart in the source
[7] = molecular target: T1, Recombinant Human FGF-23 (R&D Systems, …); assay: SPR, antibody captured by anti-human IgG, FGF-23 analyte; remark: listed apart in the source
[8] = molecular target: T1, Recombinant Human FGF-23 (R&D Systems, …); assay: SPR, antibody captured on Protein A chip, FGF-23 analyte; remark: listed apart in the source
[9] = molecular target: T1, Recombinant Human FGF-23 (R&D Systems, …); assay: SPR, antibody captured by anti-human IgG, FGF-23 analyte; remark: listed apart in the source
[10] = molecular target: T1, Recombinant Human FGF-23 (R&D Systems, …); assay: as above; remark: listed apart in the source
[11] = molecular target: T1, Recombinant Human FGF-23 (R&D Systems, …); assay: cell-based or functional assay; remark: listed apart in the source
[12] = molecular target: T1, Recombinant Human FGF-23 (R&D Systems, …); assay: cell-based or functional assay; remark: listed apart in the source
[13] = molecular target: T1, Recombinant Human FGF-23 (R&D Systems, …); assay: SPR, antibody captured on Protein A chip, FGF-23 analyte; remark: listed apart in the source

B1: antibody A-10 (antibody, V domains shown)
VH: QVQLVQSGAEVKKPGASVKVSCKASGYTFTNHYMHWVRQAPGQGLEWMGIINPISGSTSNAQKFQGRVTMTRDTSTSTVYMELSSLRSEDTAVYYCARDYVDAFDFWGQGTMVTVSS
VL: AIQLTQSPSSLSASVGDRVTITCRASQGISSALVWYQQKPGKAPKLLIYDASSLESGVPSRFSGSGSGTDFTLTISSLQPEDFATYYCQQFYDDFDFGPGTKVDIK
notes: not shown: human kappa chain constant region
FGF23 neutralizing activity, fold against antibody A [1]: 2 fold
Kd [2]: 20.2 pM
FGF23 neutralizing activity IC50 (luciferase promoter assay) [3]: 1.5 ng/mL

B3: antibody A (antibody, human IgG1)
heavy: not shown
light: AIQLTQSPSSLSASVGDRVTITCRASQGISSALVWYQQKPGKAPKLLIYDASSLESGVPSRFSGSGSGTDFTLTISSLQPEDFATYYCQQFNDYFTFGPGTKVDIK
notes: Human IgG1 antibody, kappa light chain; also called A_1; A_2; not shown: human kappa chain constant region
Kd [5]: 2.06 pM and 2.6 pM and 3.76 pM
FGF23 neutralizing activity IC50 (luciferase promoter assay) [6]: 3.3 ng/mL
FGF23 neutralizing activity IC50 (luciferase promoter assay), antibody A in same measurement lot [6]: 3.1 ng/mL and 3.3 ng/mL
Kd [7]: 4.51 pM
kon [7]: 9.12e+07 M⁻¹ s⁻¹
Kd [8]: 8.77 pM
Kd [9]: 9.93 pM
Kd [10]: 3.76 pM and 4.15 pM
Kd [2]: 14.4 pM
FGF23 neutralizing activity IC50 (luciferase promoter assay) [3]: 3.2 ng/mL
FGF23 neutralizing activity IC50 (luciferase promoter assay), antibody A in same measurement lot [3]: 3.2 ng/mL and 2.8 ng/mL
FGF23 neutralizing activity IC50 (luciferase promoter assay) [11]: 1.2 ng/mL
FGF23 neutralizing activity IC50 (luciferase promoter assay) [12]: 1.4 ng/mL

The remaining lines, values ahead:

Kd [4]: 116000 pM
B2: antibody A_IgG4PE_R409K_LS (antibody)
heavy: QVQLVQSGAEVKKPGASVKVSCKASGYTFTNHYMHWVRQAPGQGLEWMGIINPISGSTSNAQKFQGRVTMTRDTSTSTVYMELSSLRSEDTAVYYCARDIVDAFDFWGQGTMVTVSSASTKGPSVFPLAPCSRSTSESTAALGCLVKDYFPEPVTVSWNSGALTSGVHTFPAVLQSSGLYSLSSVVTVPSSSLGTKTYTCNVDHKPSNTKVDKRVESKYGPPCPPCPAPEFEGGPSVFLFPPKPKDTLMISRTPEVTCVVVDVSQEDPEVQFNWYVDGVEVHNAKTKPREEQFNSTYRVVSVLTVLHQDWLNGKEYKCKVSNKGLPSSIEKTISKAKGQPREPQVYTLPPSQEEMTKNQVSLTCLVKGFYPSDIAVEWESNGQPENNYKTTPPVLDSDGSFFLYSKLTVDKSRWQEGNVFSCSVLHEALHSHYTQKSLSLSLGK
light: AIQLTQSPSSLSASVGDRVTITCRASQGISSALVWYQQKPGKAPKLLIYDASSLESGVPSRFSGSGSGTDFTLTISSLQPEDFATYYCQQFNDYFTFGPGTKVDIK
notes: not shown: human kappa chain constant region; copies: 2 + 2

FGF23 neutralizing activity, fold against antibody A [1]: 3 fold
Kd [2]: 6.87 pM
FGF23 neutralizing activity IC50 (luciferase promoter assay) [3]: 1 ng/mL
fold antigen binding activity against antibody A [13]: 2 fold
B4: antibody A-9 (antibody, V domains shown)
VH: QVQLVQSGAEVKKPGASVKVSCKASGYTFTNHYMHWVRQAPGQGLEWMGIINPISGSTSNAQKFQGRVTMTRDTSTSTVYMELSSLRSEDTAVYYCARDAVDAFDFWGQGTMVTVSS
VL: AIQLTQSPSSLSASVGDRVTITCRASQGISSALVWYQQKPGKAPKLLIYDASSLESGVPSRFSGSGSGTDFTLTISSLQPEDFATYYCQQFWDDFDFGPGTKVDIK
notes: as for B1
